Series [1] relates to MXT mouse mammary tumor. In words: Cisplatin-treated MXT mouse mammary tumor model, purified PALP, AT, holo-TF, apo-TF (Example 9, Experiment 2). The class given is in vivo. The settings on record: 12-mg/kg s.c. with cisplatin 3-mg/kg i.p. The source says: (§1) The B16 mouse melanoma and MXT mouse mammary tumors were developed in first generation hybrid BDF1 (C57 B1 female×DBA/2 male) adult female mice kept at specified pathogen free (SPF) hygienic level. These models were chosen for these experiments because these mice have the complete immune system, and both tumors grow very rapidly. To develop the tumors, B16 and MXT tumor tissue fragments of about 0.1-cm^3 were surgically implanted subcutaneously into the intrascapular region to develop the tumors. Each tumor fragment contained about 1-1.5×10^6 cells. The animals were kept in macrolon cages on ventilated rack at 22-24° C. (50-60% humidity) with lighting regimen of 12/12 h light/dark. The animals had free access to tap water and were fed with sterilized standard diet (Charles River VRF1, Germany) ad libitum. The animals were taken care of according to the “Guiding Principle for the care and use of Animals” based upon the Helsinki declaration and they were approved by the local ethical committee.
(§2) In case of both tumor models the tumor size was usually in the range of 0.2 to 0.5-g when treatments started 7-11 days after tumor implantation; the mice were selected so that in the same treatment group the difference in tumor size was no greater than 0.1 gram. In some experiments, the test proteins were suspended in physiological saline and injected in 50-μl volume subcutaneously in the vicinity of tumor (within 1-cm of tumor margin). In other experiments, the test proteins were dispersed in Vaselinum cholesteratum and used topically; 150-mg cream was applied on the tumor and the vicinity of tumor area (with about 0.5-cm of the tumor margin). The tumor volume was determined by using calipers; this technique is well known to one having ordinary skill in the art. Tumor volume was calculated according to the generally accepted formula: V=a^2×b×7r/6, where “a” and “b” mean the shortest and longest diameter, respectively, of the measured tumor.
Experiment 2. The commercial PALP used in this model for Exp. 1 was composed of PALP (˜10%), TF (˜12%), AT (˜30%), albumin (˜35%) and the degradation products of TF (˜13%). […] In this experiment, it was determined whether the other two major proteins, i.e. TF and AT, present in the commercial PALP preparation in addition to PALP, also influence cisplatin-induced loss of body weight or not. The mouse MXT mammary tumor was developed as described in Example 3. In the first group, animals remained untreated during the whole observation period. In the second group, starting on the 7th day after tumor implantation, mice were administered 3-mg per 1-kg of cisplatin i.p. 6-times every second day. In the third group, starting on the 7th day after tumor implantation, mice were simultaneously administered 3-mg per 1-kg of cisplatin i.p. and 12-mg per 1-kg of purified PALP s.c. In the fourth group, starting on the 7th day after tumor implantation, mice were simultaneously administered 3-mg per 1-kg of cisplatin i.p. and 12-mg per 1-kg of highly purified AT s.c. In the fifth group, starting on the 7th day after tumor implantation, mice were simultaneously administered 3-mg per 1-kg of cisplatin i.p. and 12-mg per 1-kg of commercial holo-TF (h-TF, T 0665 in the Sigma catalog) s.c. In the sixth group, starting on the 7th day after tumor implantation, mice were simultaneously administered 3-mg per 1-kg of cisplatin i.p. and 12-mg per 1-kg of commercial apo-TF (a-TF, T 2036 in the Sigma catalog) s.c. Holo-TF contained 1,100-1,600 μg iron per gram protein while apo-TF was essentially iron-free. Each treatment with the proteins was also performed 6-times on every second day simultaneously with the cisplatin treatment. Each group included 7 animals. The mean values for total weight, tumor weight and body weight (the difference between total and tumor weight) are shown in gram in TABLE 7.

The subject of another series is fibroblast proliferation. The settings on record: in vitro; cited from earlier work.
Series [2] concerns B16 mouse melanoma. The series can be described thus: B16 mouse melanoma model, s.c. highly purified PALP (Example 4, Experiment 1). The class given is in vivo. The settings on record: highly purified PALP 14-mg/kg s.c. The text has this: The B16 mouse melanoma and MXT mouse mammary tumors were developed in first generation hybrid BDF1 (C57 B1 female×DBA/2 male) adult female mice kept at specified pathogen free (SPF) hygienic level. These models were chosen for these experiments because these mice have the complete immune system, and both tumors grow very rapidly. To develop the tumors, B16 and MXT tumor tissue fragments of about 0.1-cm^3 were surgically implanted subcutaneously into the intrascapular region to develop the tumors. Each tumor fragment contained about 1-1.5×10^6 cells. The animals were kept in macrolon cages on ventilated rack at 22-24° C. (50-60% humidity) with lighting regimen of 12/12 h light/dark. The animals had free access to tap water and were fed with sterilized standard diet (Charles River VRF1, Germany) ad libitum. […]
In case of both tumor models the tumor size was usually in the range of 0.2 to 0.5-g when treatments started 7-11 days after tumor implantation; the mice were selected so that in the same treatment group the difference in tumor size was no greater than 0.1 gram. […] The tumor volume was determined by using calipers; this technique is well known to one having ordinary skill in the art. Tumor volume was calculated according to the generally accepted formula: V=a^2×b×7r/6, where “a” and “b” mean the shortest and longest diameter, respectively, of the measured tumor. […]

Series [3] relates to MXT mouse mammary tumor. The series can be described thus: Cisplatin-treated MXT mouse mammary tumor model, PALP and TF (Example 9, Experiment 1). The class given is in vivo. Conditions: co-treated with cisplatin 3-mg/kg i.p.
Text: as §1, §2
Experiment 1. The mouse MXT mammary tumor was developed as described in Example 3. In the first group, animals remained untreated during the whole observation period. In the second group, starting on the 7th day after tumor implantation, mice were intraperitoneally (i.p.) administered 3-mg per 1-kg total weight of cisplatin 7-times every second day. In the third group, starting on the 7th day after tumor implantation, mice were simultaneously administered 3-mg per 1-kg of cisplatin i.p. and 16-mg per 1-kg of purified PALP s.c. In the fourth group, starting on the 7th day after tumor implantation, mice were simultaneously administered 3-mg per 1-kg of cisplatin i.p. and 60-mg per 1-kg of commercial PALP s.c. In the fifth group, starting on the 7th day after tumor implantation, mice were simultaneously administered 3-mg per 1-kg of cisplatin i.p. and 14-mg per 1-kg of commercial TF (T 3309 in the Sigma catalog) s.c. Each treatment was performed 7-times on every second day. Each group included 7 animals. The mean values for total weight, tumor weight and body weight (the difference between total and tumor weight) are shown in TABLE 6.

The subject of series [4] is B16 mouse melanoma. Conditions: cited from earlier work.
For another series, the system named is human HT 168 melanoma. Conditions: total weight includes tumor weight; cited from earlier work.
A further series has as its system mouse MXT tumor. The settings on record: cisplatin treated; cited from earlier work.

In the case of “AT: human α1-antitrypsin purified to homogeneity from commercial PALP”, in the series with MXT mouse mammary tumor [1], the “Effect on cisplatin-induced body weight loss” value is given as “partially reversed cisplatin-induced body weight loss”. Besides, the “Effect of pre-heating on the stimulatory effect on fibroblast proliferation” value in the series on fibroblast proliferation was “enhanced by pre-heating it at 65-75 °C for 30 min or at 41 °C for 21 hours”.

B1: highly purified PALP: human placental alkaline phosphatase purified to homogeneity from commercial PALP; printed as 'PALP' in Tables 1, 7, 8 (protein, UniProt P05187 23-506, looked up)
Alkaline phosphatase, …: IIPVEEENPDFWNREAAEALGAAKKLQPAQTAAKNLIIFLGDGMGVSTVTAARILKGQKKDKLGPEIPLAMDRFPYVALSKTYNVDKHVPDSGATATAYLCGVKGNFQTIGLSAAARFNQCNTTRGNEVISVMNRAKKAGKSVGVVTTTRVQHASPAGTYAHTVNRNWYSDADVPASARQEGCQDIATQLISNMDIDVILGGGRKYMFRMGTPDPEYPDDYSQGGTRLDGKNLVQEWLAKRQGARYVWNRTELMQASLDPSVTHLMGLFEPGDMKYEIHRDSTLDPSLMEMTEAALRLLSRNPRGFFLFVEGGRIDHGHHESRAYRALTETIMFDDAIERAGQLTSEEDTLSLVTADHSHVFSFGGYPLRGSSIFGLAPGKARDRKAYTVLLYGNGPGYVLKDGARPDVTESESGSPEYRQQSAVPLDEETHAGEDVAVFARGPQAHLVHGVQEQTFIAHVMAFAACLEPYTACDLAPPAGTTD
As for B1, in the series with B16 mouse melanoma [2], the “Effect on loss of body weight” value is reported as “reversed loss of body weight” and the “Effect on tumor size” value is listed as “no major effects on the tumor size”. Also, the “Effect on body weight loss induced by the tumor and cisplatin” value with MXT mouse mammary tumor [3] is given as “not only prevented the loss but significantly enhanced body weight”. For the same molecule, in the series with B16 mouse melanoma [4] (administered subcutaneously or topically), the “Effect on tumor growth” value was “reduced tumor growth”. Further, the “Effect on the action of CCDTHT on tumor growth” value in the series with B16 mouse melanoma [4] (mouse, in vivo) was “enhance the effect of CCDTHT”. In addition, in the series with human HT 168 melanoma, the “Effect on tumor induced loss of total weight” value was “reduces tumor induced loss of total weight”. For the same molecule, in the series on mouse MXT tumor, the “Effect on total weight loss” value is on record as “reduce total weight loss”.

The values above are taken from US20080098491A1, “MOUSE MODELS TO STUDY CACHEXIA” (ZOLTAN LABORATORIES LLC, priority 2006, published 2008).
